2 substances from patent US20080242590A1, “New Method 706” (ASTRAZENECA AB, priority 2007, published 2008) can be followed below.

Holding throughout (experiment): cell-based or functional assay
The target in assay [1] is amyloid β peptide 1-40 in guinea pig plasma (guinea pig) (UniProt Q60495).
Assay [2] concerns the target amyloid β peptide 1-42 in guinea pig plasma (guinea pig) (UniProt Q60495).
The target of assay [3] is amyloid β peptide 1-40 (human) (human).
The target of assay [4] is amyloid β peptide 1-42 (human) (human).
Sequence of amyloid β peptide 1-42 (human) (human) (peptide, as listed by the source): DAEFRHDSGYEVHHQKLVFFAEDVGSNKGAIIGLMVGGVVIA

Bounds are passed on as bounds.

Sequence of amyloid β peptide 1-40 (human) (human) (peptide, as listed by the source): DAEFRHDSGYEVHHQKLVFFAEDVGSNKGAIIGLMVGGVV
Sequence of Recombinant Human Neprilysin (R&D Systems) (P08473 52-750 limits assumed): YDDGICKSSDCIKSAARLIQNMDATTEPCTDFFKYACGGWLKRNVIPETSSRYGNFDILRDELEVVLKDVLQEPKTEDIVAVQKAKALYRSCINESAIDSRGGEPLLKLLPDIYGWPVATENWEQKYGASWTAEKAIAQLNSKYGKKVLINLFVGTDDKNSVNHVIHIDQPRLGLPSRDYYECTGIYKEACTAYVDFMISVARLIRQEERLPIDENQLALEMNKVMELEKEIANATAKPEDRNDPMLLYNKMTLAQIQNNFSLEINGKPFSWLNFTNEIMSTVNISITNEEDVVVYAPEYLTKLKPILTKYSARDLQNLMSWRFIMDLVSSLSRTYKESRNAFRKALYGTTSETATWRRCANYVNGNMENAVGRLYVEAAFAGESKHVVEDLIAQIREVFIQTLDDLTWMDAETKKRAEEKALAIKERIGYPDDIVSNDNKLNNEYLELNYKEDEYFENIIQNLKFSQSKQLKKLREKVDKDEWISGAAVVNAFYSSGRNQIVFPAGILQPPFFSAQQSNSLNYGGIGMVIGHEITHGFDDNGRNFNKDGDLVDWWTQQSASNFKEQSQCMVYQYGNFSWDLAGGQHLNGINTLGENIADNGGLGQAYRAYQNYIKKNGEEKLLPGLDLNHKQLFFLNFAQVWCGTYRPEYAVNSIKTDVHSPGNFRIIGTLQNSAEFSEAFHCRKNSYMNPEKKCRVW

Regarding “Recombinant Human Neprilysin (R&D Systems) (from UniProt P08473 52-750) (enzyme)”, the degradation of Aβ40 in guinea pig plasma ex vivo compared to vehicle (ELISA), 5 µg/ml, 4 h at 37 °C in assay [1] turned out to be 49%. Also, the reduction of Aβ42 in guinea pig plasma ex vivo compared to vehicle (ELISA), 5 µg/ml, 4 h at 37 °C in assay [2] is over 57%.
As for “mouse version of the Fc-Nep (mFc-Nep) (Fc fusion)”, in assay [3], the % degradation of amyloid β 1-40 in APPswe-tg mouse plasma at highest concentration (100 µg/ml), 1 h room temperature, ELISA was 77%; the % degradation of amyloid β 1-40 in human plasma at highest concentration (100 µg/ml), 1 h room temperature, ELISA was determined as 71%; the EC50 of degradation of Aβ 1-40 in APPswe-tg mouse plasma was 0.34 µM; the EC50 of degradation of Aβ 1-40 in human plasma was determined as 0.4 µM. In assay [4], this substance displayed a % degradation of Aβ 1-42 in APPswe-tg mouse plasma at highest concentration (100 µg/ml), 1 h room temperature, ELISA of 53%; a % degradation of Aβ 1-42 in human plasma at highest concentration (100 µg/ml), 1 h room temperature, ELISA of 19%; an EC50 of degradation of Aβ 1-42 in APPswe-tg mouse plasma of 0.82 µM; an EC50 of degradation of Aβ 1-42 in human plasma of 0.18 µM.
